Experimental findings from article PMC8505397, “Development of peptides targeting receptor binding site of the envelope glycoprotein to contain the West Nile virus infection” (Scientific Reports, 2021) are described below.

In data set [1] the test system is hBMECs. Put plainly: Peptide cytotoxicity assay (XTT). The data set is classed as cell-based, human. To be noted: positive control; hBMECs; untreated = 100% viability. The procedure: The toxicity of peptides was determined by the XTT test (AppliChem, USA) as per the manufacturer’s instructions. Details are presented in Supplementary Method S15. […]
Cytotoxicity assay. hBMECs were cultured in 96-well TPP tissue culture plates (Sigma) in supplemented EBM-2 medium (Lonza) to obtain ~70% confluency (as described in Supplementary Method S1). The peptides in concentrations of 1 µM, 2 µM, 4 µM, and 6 µM (diluted in 100 µL of EBM-2 medium supplemented only with 10% FBS, 10 mM HEPES and 1 ng/mL bFGF; Sigma) were added and incubated for 24 h at 37°C in a humid atmosphere of 5% CO2. Untreated cells served as a negative control (100% viability). For positive control, cells treated with 0.01% Triton X-100 were used. After incubation, the mixture of XTT and activation reagent (5:0.1 [v/v], 50 µL each well) was added to each well and incubated for an additional 3 h at 37°C in a humid atmosphere of 5% CO2. The absorbance was measured at 450 nm. The assay was performed in replicates. The viability (%) of endothelial cells was calculated using the formula: Cell viability (%) = [(A - xA ) × 100] / (xA -
On the technique in general: Tetrazolium dyes change colour on reduction, which living cells bring about.

The target of data set [2] is proteins of hBMECs (human (endogenous in hBMECs)). The data set is described as follows: ELISA; proteins of hBMECs coated into microtiter wells, rDIII (2 µg, printed as 0.15 nM) added without pre-blocking; negative control (no rDIII) subtracted. In general terms: ELISA stands for enzyme-linked immunosorbent assay.
The target in data set [3] is T1, 7-mer cyclic peptide CP12 (ACX7CGGGS form of CTYENHRTC) (disulfide 2-10 (inferred)).
T1 construct: additional alanine at the N-terminus (ACX7CGGGS); peptide of phage clone CC12; C-terminal linker; source: E. coli SHuffle T5, purified; N-terminal tag cleaved with enterokinase and removed on nickel beads; not shown: His6, N-terminal, cleaved; 28 aa tag, N-terminal, cleaved
T1 peptide: ACTYENHRTCGGGS
Put plainly: ELISA; peptides covalently coated through their C-terminus in Nunc CovaLink NH plates (EDC plus sulfo-NHS), blocked with 0.5% BSA in PBS, incubated with rDIII, detected with HisProbe-HRP; negative control (no rDIII) subtracted. To be noted: both partners purified.

In data set [4] the target is T2, 7-mer cyclic peptide CP4 (ACX7CGGGS form of CIHSSTRAC) (disulfide 2-10 (inferred)).
T2 construct: additional alanine at the N-terminus (ACX7CGGGS); peptide of phage clone CC4; C-terminal linker; source: E. coli SHuffle T5, purified; N-terminal tag cleaved with enterokinase and removed on nickel beads; not shown: His6, N-terminal, cleaved; 28 aa tag, N-terminal, cleaved
T2 peptide: ACIHSSTRACGGGS
The description is as above. To be noted: both partners purified.

Data set [5] has as its target T3, 7-mer cyclic peptide CP15 (ACX7CGGGS form of CDPRHSKFC) (disulfide 2-10 (inferred)).
T3 construct: additional alanine at the N-terminus (ACX7CGGGS); peptide of phage clone CC15; C-terminal linker; source: E. coli SHuffle T5, purified; N-terminal tag cleaved with enterokinase and removed on nickel beads; not shown: His6, N-terminal, cleaved; 28 aa tag, N-terminal, cleaved
T3 peptide: ACDPRHSKFCGGGS
The data set is described as above. To be noted: both partners purified.

Data set [6] concerns the target T4, 12-mer linear peptide LP3 (X12GGGS form of SGVYKVAYDWQH).
T4 construct: peptide of phage clone LC3; C-terminal linker; source: E. coli SHuffle T5, purified; N-terminal tag cleaved with enterokinase and removed on nickel beads; not shown: His6, N-terminal, cleaved; 28 aa tag, N-terminal, cleaved
T4 peptide: SGVYKVAYDWQHGGGS
Described as above. To be noted: both partners purified.

Data set [7] has as its target T5, 7-mer cyclic peptide CP16 (ACX7CGGGS form of CLAQSHPLC) (disulfide 2-10 (inferred)).
T5 construct: additional alanine at the N-terminus (ACX7CGGGS); peptide of phage clone CC16; C-terminal linker; also called C16; source: E. coli SHuffle T5, purified; N-terminal tag cleaved with enterokinase and removed on nickel beads; not shown: His6, N-terminal, cleaved; 28 aa tag, N-terminal, cleaved
T5 peptide: ACLAQSHPLCGGGS
The data set is described as above. To be noted: both partners purified.

Data set [8] deals with T6, 7-mer cyclic peptide CP2 (ACX7CGGGS form of CTKTDVHFC) (disulfide 2-10 (inferred)).
T6 construct: additional alanine at the N-terminus (ACX7CGGGS); peptide of phage clone CC2; C-terminal linker; source: E. coli SHuffle T5, purified; N-terminal tag cleaved with enterokinase and removed on nickel beads; not shown: His6, N-terminal, cleaved; 28 aa tag, N-terminal, cleaved
T6 peptide: ACTKTDVHFCGGGS
The data set is described as above. To be noted: both partners purified.

The target of data set [9] is T7, 7-mer cyclic peptide CP7 (ACX7CGGGS form of CTNANHYFC) (disulfide 2-10 (inferred)).
T7 construct: additional alanine at the N-terminus (ACX7CGGGS); peptide of phage clone CC7; C-terminal linker; source: E. coli SHuffle T5, purified; N-terminal tag cleaved with enterokinase and removed on nickel beads; not shown: His6, N-terminal, cleaved; 28 aa tag, N-terminal, cleaved
T7 peptide: ACTNANHYFCGGGS
Described as above. To be noted: both partners purified.

Data set [10] concerns the target T8, 7-mer cyclic peptide CP6 (ACX7CGGGS form of CMQTQRAHC) (disulfide 2-10 (inferred)).
T8 construct: additional alanine at the N-terminus (ACX7CGGGS); peptide of phage clone CC6; C-terminal linker; source: E. coli SHuffle T5, purified; N-terminal tag cleaved with enterokinase and removed on nickel beads; not shown: His6, N-terminal, cleaved; 28 aa tag, N-terminal, cleaved
T8 peptide: ACMQTQRAHCGGGS
Described as above. To be noted: both partners purified.

Positions of bridges follow the written chain, without caps; N, C: chain ends. No end group written: not given here.

In the case of Triton X-100 [reference compound], the “cell viability (XTT)” value in data set [1] is less than 2.8%.
Consider “recombinant domain III (DIII) of the envelope (E) glycoprotein of West Nile virus (domain or fragment)”, for which the A450 in [2] is 1.06.

B1: recombinant domain III (DIII) of the envelope (E) glycoprotein of West Nile virus (domain or fragment)
chain: GTTYGVCSKAFKFLGTPADTGHGTVVLELQYTGTDGPCKVPISSVASLNDLTPVGRLVTVNPFVSVATANAKVLIELEPPFGDSYIVVGRGEQQINHHWHK
As to B1, the A450 is greater than 1.9 in data set [3]; greater than 1.9 in data set [4]; greater than 1.9 in data set [5]; 2.56 in data set [6]; greater than 1.9 in data set [7]; greater than 1.9 in data set [8]. Also, the A450 in data set [9] and in [10] was greater than 1.9 each time.
